Consider seven molecules from US20040115667A1, “Dna-sequences, which code for an apoptosis signal transduction protein” (priority 2000, published 2004).

For test [1], the system named is Bcl-rambo-induced cell death (caspase-3 activity) in 293T cells. In words: Effect of apoptosis inhibitors on apoptotic activity of full-length Bcl-rambo in 293T cells. In kind it is cell-based, human. On the procedure:
The effect of different apoptosis inhibitors on the apoptotic activity of Bcl-rambo is investigated in FIG. 6. For this, 293T cells were transfected for 27 hours (shown in FIG. 6A) with 2 μg of Bcl-rambo expression plasmid and 0.5 μg of expression vectors encoding various apoptosis inhibitors, together with 0.5 μg of β-galactosidase expression vector.
(§1) 293T cells (3×10^5 cells) were sown on 60 mm culture dishes on the day before the transfection and then transiently cotransfected with 2 μg of Bcl-rambo expression plasmids and 0.2 μg of EGFP expression vector (pEGFP-C1, from Clontech) or with 0.5 μg of pCMV-β-galactosidase expression vector. The postnuclear lyzates were then analyzed with regard to the fluorescence intensity of EGFP, the galactosidase activity and the caspase-3 activity using a peptide substrate (Ac-DEVD-AMC, from Alexis). In order to be able to compare the individual measurements, the caspase-3 activity (measured as the number of times it was increased by the induction) was standardized using the fluorescence intensity of EGFP or the β-galactosidase activity.

Test [2] concerns caspase-3 activity in 293T cells. In words: Caspase-3 activity / apoptosis in 293T cells transfected with Bcl-rambo constructs. Type of test: cell-based, human. Particulars: 2 μg construct, 42 hours; for increase in caspase-3 activity (times increase in activity induced): standardized by EGFP fluorescence. On the procedure:
FIG. 5 describes the Bcl-rambo-induced apoptosis which is induced by the C-terminal domain of Bcl-rambo. For this, 293T cells were transfected with 2 μg of various Bcl-rambo constructs, namely mock transfectants, full-length Bcl-rambo (amino acids 1-485), Bcl-rambo without the C-terminal anchor domain (amino acids 1-459), the N-terminal domain of homology with Bcl-2 (amino acids 1-223), the C-terminal domain containing the BHNo region (amino acids 205-485), the C-terminal domain without the anchor region (amino acids 205-459) and, finally, a truncated N-terminal domain (amino acids 1-201). All the abovementioned constructs are depicted diagrammatically in FIG. 5 (right-hand drawing), with the BH regions (BH4 (4), BH3 (3), BH1 (1) and BH2 (2)) and also, if present, the tandem repeats and/or the anchor regions (MA) being shown diagrammatically. The transfection, which took place jointly together with 0.2 μg of an EGFP expression vector, namely pEGFP-C1, lasted for 42 hours. The graph shown in the upper left of FIG. 5 plots the caspase-3 activity (as the times increase in activity induced). The activity in the individual experimental assays was standardized by taking into account the fluorescence intensity of transfected EGFP, i.e. the cotransfection with the EGFP expression vector was used to check the transfection rate in order to ensure that it was possible to compare the results in the different experimental assays.
It follows from the results of the experiments depicted in FIG. 5 that the BHNo domain (and not, for example, the domain having homology with Bcl-2) is responsible for inducing cell death when Bcl-rambo is overexpressed. […] In the case of all the cell extracts, the strength of the expression of the individual constructs in the transfected cells was checked by Western blot analysis using anti-Flag antibody M2 (lower left-hand diagram in FIG. 5).
as §1

For test [3], the system named is antiapoptotic proteins (Bcl-2, Bcl-XL, Bcl-w, A1, MCL-1, E1B-19K and BHRF1). The test can be described thus: Co-immunoprecipitation of Bcl-rambo with antiapoptotic proteins of the Bcl-2 family in 293T cells. In kind it is binding. The note with it: HA-labeled Bcl-rambo with Flag-labeled antiapoptotic protein.
Test [4] has as its system proapoptotic proteins Bax, Bak, Bik, Bid, Bim, Bad and Bcl-rambo. In words: Co-immunoprecipitation of Bcl-rambo with proapoptotic proteins of the Bcl-2 family in 293T cells. In kind it is binding. The note with it: anti-Flag M2 agarose immunoprecipitation, anti-EE blot, also with z-VAD-fmk.
Test [5] concerns the target T1, proapoptotic proteins Bax, Bak, Bik, Bid, Bim, Bad and Bcl-rambo (Homo sapiens, UniProt Q9BXK5).
T1 construct: expressed in transfected cells; host or cells: 293T cells
The test is described as above. The note with it: co-immunoprecipitation. Type of test: binding.

Entries after “also recorded” stand apart in the source; their conditions may differ. Peptide text beside a SMILES is read from it. * marks the point of attachment. Cbz = O=C(OCc1ccccc1)*; CH2F = FC*

Turning to `COC(=O)C[C@H](NC(=O)[C@H](C)NC(=O)[C@@H](NC(=O)OCc1ccccc1)C(C)C)C(=O)CF` [z-VAD-fmk, reference compound] (Cbz-Val-Ala-Asp(OMe)-CH2F), the “suppression of Bcl-rambo-induced cell death by pancaspase inhibitor” value in test [1] (not depicted in FIG. 6) is given as “completely suppressed”. In the case of “c-IAP2: apoptosis inhibitor of the IAP family, coexpressed”, the “blocking of Bcl-rambo-induced cell death by coexpressed apoptosis inhibitor” value in test [1] (293T cells, 27 hours, 2 μg Bcl-rambo plasmid, 0.5 μg inhibitor vector, standardized by β-galactosidase) was “act as inhibitors; also recorded: inhibitory effect”.

B1: 1-203: truncated N-terminal domain of Bcl-rambo; printed 1-203, elsewhere 1-201 (protein, UniProt Q9BXK5 1-201, looked up, fragment)
chain: MASSSTVPLGFHYETKYVVLSYLGLLSQEKLQEQHLSSPQGVQLDIASQSLDQEILLKVKTEIEEELKSLDKEISEAFTSTGFDRHTSPVFSPANPESSMEDCLAHLGEKVSQELKEPLHKALQMLLSQPVTYQAFRECTLETTVHASGWNKILVPLVLLRQMLLELTRRGQEPLSALLQFGVTYLEDYSAEYIIQQGGWG
Take B1: in test [2], the “effect on cell survival / induction of cell death on overexpression” value (from here on “effect on cell survival / induction”) is on record as “no effect on cell survival rate”.

B2: C-terminal BHNo domain (amino acids 205-459): C-terminal domain with BHNo region and membrane anchor; range printed as 205-459, probably 205-485 (protein, UniProt Q9BXK5 205-485, looked up, fragment)
chain: SLESEEEEYPGITAEDSNDIYILPSDNSGQVSPPESPTVTTSWQSESLPVSLSASQSWHTESLPVSLGPESWQQIAMDPEEVKSLDSNGAGEKSENNSSNSDIVHVEKEEVPEGMEEAAVASVVLPARELQEALPEAPAPLLPHITATSLLGTREPDTEVITVEKSSPATSLFVELDEEEVKAATTEPTEVEEVVPALEPTETLLSEKEINAREESLVEELSPASEKKPVPPSEGKSRLSPAGEMKPMPLSEGKSILLFGGAAAVAILAVAIGVALALRKK
For B2, the “increase in caspase-3 activity (times increase in activity induced)” value in test [2] is given as “approx. 80 fold”.

B3: full-length Bcl-rambo: full-length human Bcl-rambo protein, amino acids 1-485, expressed from plasmid (protein, UniProt Q9BXK5 1-485, looked up)
chain: MASSSTVPLGFHYETKYVVLSYLGLLSQEKLQEQHLSSPQGVQLDIASQSLDQEILLKVKTEIEEELKSLDKEISEAFTSTGFDRHTSPVFSPANPESSMEDCLAHLGEKVSQELKEPLHKALQMLLSQPVTYQAFRECTLETTVHASGWNKILVPLVLLRQMLLELTRRGQEPLSALLQFGVTYLEDYSAEYIIQQGGWGTVFSLESEEEEYPGITAEDSNDIYILPSDNSGQVSPPESPTVTTSWQSESLPVSLSASQSWHTESLPVSLGPESWQQIAMDPEEVKSLDSNGAGEKSENNSSNSDIVHVEKEEVPEGMEEAAVASVVLPARELQEALPEAPAPLLPHITATSLLGTREPDTEVITVEKSSPATSLFVELDEEEVKAATTEPTEVEEVVPALEPTETLLSEKEINAREESLVEELSPASEKKPVPPSEGKSRLSPAGEMKPMPLSEGKSILLFGGAAAVAILAVAIGVALALRKK
modifications: full-length
notes: full-length human Bcl-rambo protein, amino acids 1-485, expressed from plasmid
Turning to B3, in test [3], the “interaction with antiapoptotic Bcl-2 family proteins” value is recorded as “not possible to detect any interactions; also recorded: no interactions were observed”. In test [2], the “effect on cell survival / induction” value is “marked proapoptotic effect” and the “increase in caspase-3 activity (times increase in activity induced)” value is listed as “approx. 70 fold”. In addition, the “protein/protein interaction with proapoptotic Bcl-2 family proteins” value in test [4] is “not possible to detect any protein/protein interaction”. For the same molecule, the homodimer formation entry in test [5] is “Nor can any homodimers be detected”.

B4: 205-459 construct: C-terminal domain of Bcl-rambo without the anchor region (amino acids 205-459) (protein, UniProt Q9BXK5 205-459, looked up, fragment)
chain: SLESEEEEYPGITAEDSNDIYILPSDNSGQVSPPESPTVTTSWQSESLPVSLSASQSWHTESLPVSLGPESWQQIAMDPEEVKSLDSNGAGEKSENNSSNSDIVHVEKEEVPEGMEEAAVASVVLPARELQEALPEAPAPLLPHITATSLLGTREPDTEVITVEKSSPATSLFVELDEEEVKAATTEPTEVEEVVPALEPTETLLSEKEINAREESLVEELSPASEKKPVPPSEGKSRLSPAGEMKPMPLSEGKS
For the molecule B4, in test [2], the “effect on cell survival / induction” value is listed as “no longer able to elicit cell death”.

B5: amino acids 1-223: N-terminal domain of Bcl-rambo with homology to Bcl-2 (protein, UniProt Q9BXK5 1-223, looked up, fragment)
chain: MASSSTVPLGFHYETKYVVLSYLGLLSQEKLQEQHLSSPQGVQLDIASQSLDQEILLKVKTEIEEELKSLDKEISEAFTSTGFDRHTSPVFSPANPESSMEDCLAHLGEKVSQELKEPLHKALQMLLSQPVTYQAFRECTLETTVHASGWNKILVPLVLLRQMLLELTRRGQEPLSALLQFGVTYLEDYSAEYIIQQGGWGTVFSLESEEEEYPGITAEDSND
With B5, the “interaction with antiapoptotic Bcl-2 family proteins” value in test [3] is reported as “does not interact with other proteins of the Bcl-2 family”. Also, in test [2], the “effect on cell survival / induction” value was “no effect on cell survival rate”. Further, the “protein/protein interaction with proapoptotic Bcl-2 family proteins” value in test [4] is listed as “does not interact with other proteins of the Bcl-2 family”.
